One substance from patent US20190177414A1 can be followed below.

Assay [1] has as its target CTLA4-mFc fusion protein (human). Put plainly: competitive ELISA; competitor B7-1-hFc coated 1 ug/ml; CTLA4-mFc 0.3 ug/ml; antibody dilution 1:243 from 3 ug/ml; replicate 1.
Assay [2] has the same target. Put plainly: competitive ELISA; competitor B7-1-hFc coated 1 ug/ml; CTLA4-mFc 0.3 ug/ml; antibody dilution 1:729 from 3 ug/ml; replicate 1.
For assay [3] the target is unchanged. Kind of assay: competitive ELISA; competitor B7-1-hFc coated 1 ug/ml; CTLA4-mFc 0.3 ug/ml; antibody dilution 1:9 from 3 ug/ml; replicate 1.
Assay [4] has the same target. Kind of assay: competitive ELISA; competitor B7-1-hFc coated 1 ug/ml; CTLA4-mFc 0.3 ug/ml; antibody dilution 1:3 from 3 ug/ml; replicate 2.
Assay [5] has the same target. Kind of assay: competitive ELISA; competitor B7-1-hFc coated 1 ug/ml; CTLA4-mFc 0.3 ug/ml; antibody dilution 1:27 from 3 ug/ml; replicate 1.
Assay [6] shares this target. Put plainly: competitive ELISA; competitor B7-1-hFc coated 1 ug/ml; CTLA4-mFc 0.3 ug/ml; antibody dilution 1:27 from 3 ug/ml; replicate 2.
For assay [7] the target is unchanged. Put plainly: competitive ELISA; competitor B7-1-hFc coated 1 ug/ml; CTLA4-mFc 0.3 ug/ml; antibody dilution 1:81 from 3 ug/ml; replicate 1.
The target is the same in assay [8]. Put plainly: competitive ELISA; competitor B7-1-hFc coated 1 ug/ml; CTLA4-mFc 0.3 ug/ml.
For assay [9] the target is unchanged. Kind of assay: competitive ELISA; competitor B7-1-hFc coated 1 ug/ml; CTLA4-mFc 0.3 ug/ml; antibody 0 (no antibody); replicate 2.
For assay [10] the target is unchanged. Kind of assay: competitive ELISA; competitor B7-1-hFc coated 1 ug/ml; CTLA4-mFc 0.3 ug/ml; antibody dilution 1:729 from 3 ug/ml; replicate 2.
Assay [11] shares this target. Kind of assay: competitive ELISA; competitor B7-1-hFc coated 1 ug/ml; CTLA4-mFc 0.3 ug/ml; antibody 3 ug/ml; replicate 1.
The target is the same in assay [12]. Put plainly: competitive ELISA; competitor B7-1-hFc coated 1 ug/ml; CTLA4-mFc 0.3 ug/ml; antibody dilution 1:9 from 3 ug/ml; replicate 2.
The target is the same in assay [13]. Kind of assay: competitive ELISA; competitor B7-1-hFc coated 1 ug/ml; CTLA4-mFc 0.3 ug/ml; antibody 3 ug/ml; replicate 2.
Assay [14] has the same target. Put plainly: competitive ELISA; competitor B7-1-hFc coated 1 ug/ml; CTLA4-mFc 0.3 ug/ml; antibody dilution 1:243 from 3 ug/ml; replicate 2.
Assay [15] has the same target. Kind of assay: competitive ELISA; competitor B7-1-hFc coated 1 ug/ml; CTLA4-mFc 0.3 ug/ml; antibody 0 (no antibody); replicate 1.
Assay [16] shares this target. Kind of assay: competitive ELISA; competitor B7-1-hFc coated 1 ug/ml; CTLA4-mFc 0.3 ug/ml; antibody dilution 1:3 from 3 ug/ml; replicate 1.
Assay [17] has the same target. Put plainly: competitive ELISA; competitor B7-1-hFc coated 1 ug/ml; CTLA4-mFc 0.3 ug/ml; antibody dilution 1:81 from 3 ug/ml; replicate 2.

Sequence of CTLA4-mFc fusion protein (human) (chain, as listed by the source limits assumed): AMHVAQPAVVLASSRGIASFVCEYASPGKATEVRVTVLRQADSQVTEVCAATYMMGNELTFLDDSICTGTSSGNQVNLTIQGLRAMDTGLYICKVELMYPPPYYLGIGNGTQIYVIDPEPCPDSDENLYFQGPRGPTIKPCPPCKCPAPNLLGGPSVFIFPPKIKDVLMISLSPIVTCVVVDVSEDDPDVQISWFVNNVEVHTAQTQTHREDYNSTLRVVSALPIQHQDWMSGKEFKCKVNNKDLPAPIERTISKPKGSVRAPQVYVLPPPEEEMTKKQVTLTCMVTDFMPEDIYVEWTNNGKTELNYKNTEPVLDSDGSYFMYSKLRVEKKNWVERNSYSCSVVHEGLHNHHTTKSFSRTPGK

As to “control antibody 10D1 (anti-CTLA4 antibody)”, the absorbance at 450 nm in assay [1] stood at 0.556; in assay [2], 0.726; in assay [3], 0.351; in assay [4], 0.133; in [5], 0.442; in assay [6], 0.365. For the same substance, the absorbance at 450 nm in assay [7] worked out at 0.572; in assay [9] it was 0.732; in [10], 0.692; in [11], 0.147; in assay [12] it was 0.312; in [13], 0.14. Moreover, the absorbance at 450 nm in assay [14] came to 0.554; in [15] it was 0.888; in assay [16], 0.144; in assay [17], 0.663. The same substance yielded an EC50 in assay [8] of 1.12 nM.
